The record followed here is US20250034256A1 (EUCURE BEIJING BIOPHARMA, published 2025).

B1: 1A7-H2K2-IgG4-S228P (antibody, V domains shown)
VH: EVQLVESGGGLVQPGGSLRLSCAASGFTFSSYSMSWVRQAPGKRLEWVAHISSGGSSTYYPDTVKGRFTISRDNSKNTLYLQMNSLRAEDTAMYYCTRQFYYGSSFWYFDVWGAGTTVTVSS
VL: DNVLTQSPATLSVSPGERATLSCKASQSVDFDGDSYMNWYQQKPGQPPRLLIYAASNLESGIPARFSGSGPGTDFTLTISSLEPEDFATYYCQQSNEDPPTFGGGTKVEIK
notes: Humanized; human IgG4 constant domains with S228P (EU numbering)
B2: 1A7-H3K2-IgG4-S228P (antibody, V domains shown)
VH: B1 VH with Q3K
VL: B1 VL
notes: as for B1
B3: 1A7-H3K1-IgG4-S228P (antibody, V domains shown)
VH: B1 VH with Q3K
VL: B1 VL with V13L
notes: as for B1
B4: 1A7-H1K1-IgG4-S228P (antibody, V domains shown)
VH: B1 VH with V5L, A114Q
VL: B1 VL with V13L
notes: as for B1
B5: 1A7-H3K3-IgG4-S228P (antibody, V domains shown)
VH: B1 VH with Q3K
VL: B1 VL with P71S, L82V
notes: as for B1
B6: 1A7-H2K3-IgG4-S228P (antibody, V domains shown)
VH: B1 VH
VL: B1 VL with P71S, L82V
notes: as for B1
B7: 1A7-H1K2-IgG4-S228P (antibody, V domains shown)
VH: B1 VH with V5L, A114Q
VL: B1 VL
notes: as for B1
B8: 1A7-H2K1-IgG4-S228P (antibody, V domains shown)
VH: B1 VH
VL: B1 VL with V13L
notes: as for B1
B9: 1A7-H1K3-IgG4-S228P (antibody, V domains shown)
VH: B1 VH with V5L, A114Q
VL: B1 VL with P71S, L82V
notes: as for B1
B10: 3F1-mHvKv-IgG4-S228P (antibody, V domains shown)
VH: QVQLQQSGAELAKPGASVKMSCKASGYTFTSYWMHWVKQRPGQGLEWIGYINPSTGYTEYNQKFKDKATLTADKSSSTAYMQLSSLTSEDSAVYYCARGVRYYFDYWGQGTTLTVSS
VL: DIVMSQSPSSLAVSAGEKVTMSCKSSQSLLNSRTRKNYLAWYQQKPGQSPKLLIYWASTRESGVPDRFTGSGSGTDFTLTISSVQAEDLAVYYCKQSYNLLTFGAGTKLELK
notes: Chimeric antibody: mouse 3F1 variable domains, human IgG4 constant domains (CL, CH1, CH2, CH3) with S228P (EU numbering); also called 18-3F1-mHvKv-IgG4-S228P; 3F1-mHyKy-IgG4-S228P
B11: 3F1-H3K2-IgG4-S228P (antibody, V domains shown)
VH: B10 VH with L11V, K67R, K74T, S76T, Q82E, T87R, S91T, T112L
VL: B10 VL with S5T, S9D, A15L, K18R, V19A, T69S, L89V, A105Q
notes: as for B1
B12: 3F1-H3K1-IgG4-S228P (antibody, V domains shown)
VH: B10 VH with L11V, K67R, K74T, S76T, Q82E, T87R, S91T, T112L
VL: B10 VL with S5T, S9D, A15L, K18R, V19A, M21I, T69S, L89V, A105Q
notes: as for B1
B13: 3F1-H2K2-IgG4-S228P (antibody, V domains shown)
VH: B10 VH with L11V, A12K, K67R, S76T, Q82E, T87R, S91T, T112L, L113V
VL: B10 VL with S5T, S9D, A15L, K18R, V19A, T69S, L89V, A105Q
notes: as for B1
B14: 3F1-H4K1-IgG4-S228P (antibody, V domains shown)
VH: B10 VH with L11V, K67R, S76T, Q82E, S91T, T112L
VL: B10 VL with S5T, S9D, A15L, K18R, V19A, M21I, T69S, L89V, A105Q
notes: as for B1
B15: 3F1-H1K3-IgG4-S228P (antibody, V domains shown)
VH: QVQLQQSGAEVKKPGASVKMSCKASGYTFTSYWMHWVRQAPGQGLEWIGYINPSTGYTEYNQKFKDRATLTADTSTSTAYMELSSLRSEDTAVYYCARGVRYYFDYWGQGTLVTVSS
VL: B10 VL with S5T, K18R, T69S, L89V, A105Q
notes: as for B1
B16: 3F1-H2K3-IgG4-S228P (antibody, V domains shown)
VH: B15 VH with R38K, A40R, T74K
VL: B10 VL with S5T, K18R, T69S, L89V, A105Q
notes: as for B1
B17: 3F1-H2K1-IgG4-S228P (antibody, V domains shown)
VH: B15 VH with R38K, A40R, T74K
VL: B10 VL with S5T, S9D, A15L, K18R, V19A, M21I, T69S, L89V, A105Q
notes: as for B1
B18: 3F1-H3K3-IgG4-S228P (antibody, V domains shown)
VH: B15 VH with K12A, R38K, A40R, V113L
VL: B10 VL with S5T, K18R, T69S, L89V, A105Q
notes: as for B1
B19: 3F1-H1K2-IgG4-S228P (antibody, V domains shown)
VH: B15 VH
VL: B10 VL with S5T, S9D, A15L, K18R, V19A, T69S, L89V, A105Q
notes: as for B1
B20: 3F1-H4K2-IgG4-S228P (antibody, V domains shown)
VH: B10 VH with L11V, K67R, S76T, Q82E, S91T, T112L
VL: B10 VL with S5T, S9D, A15L, K18R, V19A, T69S, L89V, A105Q
notes: as for B1
B21: 3F1-H4K3-IgG4-S228P (antibody, V domains shown)
VH: B10 VH with L11V, K67R, S76T, Q82E, S91T, T112L
VL: B10 VL with S5T, K18R, T69S, L89V, A105Q
notes: as for B1
B22: 3F1-H1K1-IgG4-S228P (antibody, V domains shown)
VH: B15 VH
VL: B10 VL with S5T, S9D, A15L, K18R, V19A, M21I, T69S, L89V, A105Q
notes: as for B1

Changes are numbered by the printed parent chain. Names may count otherwise.

T1 sequence (Q15116 25-170 limits assumed): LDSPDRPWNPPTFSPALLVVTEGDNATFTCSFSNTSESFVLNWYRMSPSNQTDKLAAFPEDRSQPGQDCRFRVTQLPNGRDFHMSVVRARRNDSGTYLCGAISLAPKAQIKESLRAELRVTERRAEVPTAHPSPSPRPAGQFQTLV

The experiment concerns the target T1, Histidine-tagged human PD-1 protein (hPD-1-His) (human, UniProt Q15116 25-170, limits assumed).
T1 construct: Soluble analyte in SPR; not shown: histidine tag
Description: SPR (Biacore T200), antibody captured on Protein A chip, hPD-1-His analyte, 1:1 fit. Here is the method:
The binding affinity of the anti-hPD-1 antibodies were measured using surface plasmon resonance (SPR) using Biacore™ (Biacore™, INC, Piscataway N.J.) T200 biosensor equipped with pre-immobilized Protein A sensor chips.
Histidine-tagged human PD-1 proteins (hPD-1-His) at the concentration of 200, 100, 50, 25, 12.5, 6.25, 3.125, 1.5625 nM were then injected at 30 μL/min for 100 seconds. Dissociation was monitored for 400 seconds. The chip was regenerated after the last injection of each titration with Glycine (pH 2.0, 30 μL/min for 12 seconds).
As a person of ordinary skill in the art would understand, the same method with appropriate adjustments for parameters (e.g., antibody concentration) was performed for each tested antibody.
In general terms: SPR reads the build-up and loss of mass on a sensor chip optically.
Regarding B1, the Kd is 57.8 nM, the koff amounted to 0.00282 s⁻¹ and the kon amounted to 48800 M⁻¹ s⁻¹.
For B2 the same measures were 58.2 nM, 0.0028 s⁻¹ and 48100 M⁻¹ s⁻¹.
Consider B3, for which the Kd is 39.9 nM, the koff is 0.00264 s⁻¹ and the kon amounted to 66200 M⁻¹ s⁻¹.
For B4 the same measures were 47.9 nM, 0.00272 s⁻¹ and 56800 M⁻¹ s⁻¹.
For B5 the same measures were 12.9 nM, 0.00132 s⁻¹ and 102000 M⁻¹ s⁻¹.
B6 showed a Kd of 11.9 nM, a koff of 0.00136 s⁻¹ and a kon of 115000 M⁻¹ s⁻¹.
For B7 the same measures were 32.1 nM, 0.00265 s⁻¹ and 82600 M⁻¹ s⁻¹.
Take B8: the Kd came to 57.3 nM, the koff is 0.0028 s⁻¹ and the kon came out at 48900 M⁻¹ s⁻¹.
In the same order, the values of B9 are 10.1 nM, 0.00119 s⁻¹ and 118000 M⁻¹ s⁻¹.
The molecule B10 had a Kd of 346 nM, a koff of 0.00128 s⁻¹ and a kon of 3700 M⁻¹ s⁻¹.
B11 showed a dissociation constant (Kd) of 296 nM, an off-rate (koff) of 0.0015 s⁻¹ and a kon of 5060 M⁻¹ s⁻¹.
In turn, B12 displayed a Kd of 395 nM, a koff of 0.00179 s⁻¹ and a kon of 4530 M⁻¹ s⁻¹.
In the same order, the values of B13 are 354 nM, 0.0017 s⁻¹ and 4810 M⁻¹ s⁻¹.
For the molecule B14, the Kd stood at 460 nM, the koff is 0.00204 s⁻¹ and the kon worked out at 4420 M⁻¹ s⁻¹.
B15 yielded a Kd of 275 nM, a koff of 0.00132 s⁻¹ and a kon of 4790 M⁻¹ s⁻¹.
For the molecule B16, the affinity, expressed as Kd, was 329 nM; the koff stood at 0.00145 s⁻¹; the on-rate constant (kon) stood at 4410 M⁻¹ s⁻¹.
For B17 the same measures were 422 nM, 0.00192 s⁻¹ and 4550 M⁻¹ s⁻¹.
For B18 the same measures were 318 nM, 0.00139 s⁻¹ and 4380 M⁻¹ s⁻¹.
Turning to B19, the Kd was 294 nM, the koff amounted to 0.00155 s⁻¹ and the kon worked out at 5270 M⁻¹ s⁻¹.
B20 showed a Kd of 369 nM, a koff of 0.00177 s⁻¹ and a kon of 4800 M⁻¹ s⁻¹.
For B21 the same measures were 397 nM, 0.00161 s⁻¹ and 4060 M⁻¹ s⁻¹.
In the same order, the values of B22 are 376 nM, 0.00181 s⁻¹ and 4810 M⁻¹ s⁻¹.

By Kd is commonly meant the constant that tells how readily two partners part at equilibrium. Higher therefore signals lower affinity. By koff is commonly meant a measure of how fast the partners let go of each other. The term kon denotes a measure of how fast the partners come together.
